Reference: the supplement of paper PMC11865577

How the values were obtained:
Experiment in all cases: pull-down binding Z-score (relative to library population); higher = stronger binding
Details in all cases: RNA library: Library-2
[1] = system: TO-3-N3-2 (biotin conjugate)
Procedure, shortened: (§1)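 Streptavidin beads with 100 pmol of biotin-conjugated small molecule were incubated for 60 min at 25 °C with 1 μg of heat-folded Cy5- or Cy3-end-labelled RNA library in phosphate/NaCl/KCl buffer. Bound RNA was eluted in hot SDS after three washes and hybridised to a DNA barcode microarray at 55.5 °C for 20 h. Each binding score is a library-referenced Z-score, computed after beads-only subtraction and a trimmed mean of barcoded replicate probes.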

[2] = system: TO-N3-2 (biotin conjugate)
Procedure, shortened: as §1

[3] = system: TO-3-N3 (biotin conjugate)
Procedure, shortened: as §1

[4] = system: TO-N3 (biotin conjugate)
Procedure, shortened: as §1

UCAAAAAGAAAUUGA [SHAPE_invivo_SARS-CoV-2_Motif_472]
pull-down binding Z-score [1]: 0.153 | pull-down binding Z-score [2]: -0.626 | pull-down binding Z-score [3]: -0.145 | pull-down binding Z-score [4]: -0.459

UCAAGACUAUUCAACCAAGGGUUGAAAAGAAAAAGCUUGA [SHAPE_invivo_SARS-CoV-2_Motif_22]
pull-down binding Z-score [1]: -0.14 | pull-down binding Z-score [2]: -0.823 | pull-down binding Z-score [3]: -0.217 | pull-down binding Z-score [4]: -0.551

UCAAUUAUUAUAAGAAAGUUGA
pull-down binding Z-score [1]: -0.0592 | pull-down binding Z-score [2]: -0.425 | pull-down binding Z-score [3]: 0.154 | pull-down binding Z-score [4]: 0.0296

UCACACUAAAAAGUGGA
pull-down binding Z-score [1]: -0.477 | pull-down binding Z-score [2]: -1.15 | pull-down binding Z-score [3]: -0.691 | pull-down binding Z-score [4]: -1.1

UCACACUCAAAGGCGGUGCACCAACAAAGGUUACUUUUGGUGAUGACACUGUGAUAGAAGUGCAAGGUUACAAGAGUGUGAAUAUCACUUUUGAACUUGAUGA [DMSMaPseq_invitro_SARS-CoV-2_Multi_10_ComplexLevel_1]
pull-down binding Z-score [1]: -0.184 | pull-down binding Z-score [2]: 0.257 | pull-down binding Z-score [3]: 0.0984 | pull-down binding Z-score [4]: 0.304

UCACAGAAUGCUGUAGCCUCAAAGAUUUUGGGACUACCAACUCAAACUGUUGA
pull-down binding Z-score [1]: -0.271 | pull-down binding Z-score [2]: -0.508 | pull-down binding Z-score [3]: -0.508 | pull-down binding Z-score [4]: -0.673

UCACUCACUGAGUGA [IAV_invivo_NP_5_Motif_1+IAV_invivo_NP_5_Motif_1]
pull-down binding Z-score [1]: -0.357 | pull-down binding Z-score [2]: -1.45 | pull-down binding Z-score [3]: -0.0667 | pull-down binding Z-score [4]: -0.616

UCAGCUGGUUUUCCAUUUAAUAAAUGGGGUAAGGCUAGA
pull-down binding Z-score [1]: -0.448 | pull-down binding Z-score [2]: -0.851 | pull-down binding Z-score [3]: -0.104 | pull-down binding Z-score [4]: -0.355

UCAGUUGUAAACAUUCAAAAAGAAAUUGA
pull-down binding Z-score [1]: 0.407 | pull-down binding Z-score [2]: 0.216 | pull-down binding Z-score [3]: 0.0975 | pull-down binding Z-score [4]: 0.0554

UCAUAACAGAUGCGCAAACAGGUUCAUCUAAGUGUGUGUGUUCUGUUAUUGA [SHAPE_invivo_SARS-CoV-2_Motif_383]
pull-down binding Z-score [1]: -0.455 | pull-down binding Z-score [2]: 1.78 | pull-down binding Z-score [3]: -0.657 | pull-down binding Z-score [4]: -0.196

UCAUACUGAAAGCGAACUUCAGUGUGA [IAV_invivo_NS1_NEP_8_Motif_9+IAV_invivo_NS1_NEP_8_Motif_9]
pull-down binding Z-score [1]: -0.294 | pull-down binding Z-score [2]: -1.16 | pull-down binding Z-score [3]: -0.0847 | pull-down binding Z-score [4]: -0.352

UCAUCAGGAGAUGCCACAACUGCUUAUGCUAAUAGUGUUUUUAACAUUUGUCAAGCUGUCACGGCCAAUGUUAAUGCACUUUUAUCUACUGAUGG [DMSMaPseq_invitro_SARS-CoV-2_Multi_45_ComplexLevel_1]
pull-down binding Z-score [1]: -0.46 | pull-down binding Z-score [2]: -0.306 | pull-down binding Z-score [3]: -0.641 | pull-down binding Z-score [4]: -0.561

UCAUUAAUUGA
pull-down binding Z-score [1]: -0.664 | pull-down binding Z-score [2]: -1.65 | pull-down binding Z-score [3]: -0.712 | pull-down binding Z-score [4]: -1.27

UCCAAACGCAAGCUUCGAUAAUUUUAAGUUUGUAUGUGA [SHAPE_invivo_SARS-CoV-2_Motif_125]
pull-down binding Z-score [1]: -0.0327 | pull-down binding Z-score [2]: -0.684 | pull-down binding Z-score [3]: -0.388 | pull-down binding Z-score [4]: -0.589

UCCAAGAACUUGGA
pull-down binding Z-score [1]: -0.88 | pull-down binding Z-score [2]: -1.73 | pull-down binding Z-score [3]: -0.941 | pull-down binding Z-score [4]: -1.35

UCCACACGCAAGUUGUGGA
pull-down binding Z-score [1]: -0.579 | pull-down binding Z-score [2]: -1.4 | pull-down binding Z-score [3]: -0.719 | pull-down binding Z-score [4]: -1.18

UCCACUAGCAUCUUUAUUGGAGAUGUGCCACAGCACACAGAUUGGUGGAAUUAGGAUGGUAGACAUCCUUAGGCAGAACCCAACAGAAGAGCAAGCCGUGGA
pull-down binding Z-score [1]: -0.269 | pull-down binding Z-score [2]: 0.0456 | pull-down binding Z-score [3]: -0.764 | pull-down binding Z-score [4]: -0.545

UCCAUUUUUGGGUGUUUAUUACCACAAAAACAACAAAAGUUGGA [SHAPE_invitro_SARS-CoV-2_Motif_398]
pull-down binding Z-score [1]: 0.136 | pull-down binding Z-score [2]: -0.616 | pull-down binding Z-score [3]: -1.12 | pull-down binding Z-score [4]: -1.29

UCCCAGUUUUGGGG [IAV_invivo_PB1_2_Motif_27+IAV_invivo_PB1_2_Motif_27]
pull-down binding Z-score [1]: -0.902 | pull-down binding Z-score [2]: -1.6 | pull-down binding Z-score [3]: -0.953 | pull-down binding Z-score [4]: -1.36

UCCCAUGAGGGG [IAV_invivo_HA_4_Motif_6+IAV_invivo_HA_4_Motif_6]
pull-down binding Z-score [1]: -0.725 | pull-down binding Z-score [2]: -1.39 | pull-down binding Z-score [3]: -0.753 | pull-down binding Z-score [4]: -1.28

UCCGAUUUACAGGA [DMSMaPseq_invitro_SARS-CoV-2_Motif_227]
pull-down binding Z-score [1]: -0.0117 | pull-down binding Z-score [2]: -0.256 | pull-down binding Z-score [3]: -0.342 | pull-down binding Z-score [4]: -0.272

UCCGUAAGUAGGAUACUUACCUG [U1snRNP5ss-21]
pull-down binding Z-score [1]: -0.419 | pull-down binding Z-score [2]: -0.337 | pull-down binding Z-score [3]: -0.611 | pull-down binding Z-score [4]: -0.61

UCCUAAAGAGGA
pull-down binding Z-score [1]: -0.431 | pull-down binding Z-score [2]: -0.731 | pull-down binding Z-score [3]: 1.2 | pull-down binding Z-score [4]: 0.703

UCCUAAAGUGAAGUAUUUAUACUUUAUUAAAGGA [SHAPE_invitro_SARS-CoV-2_Motif_235]
pull-down binding Z-score [1]: -0.48 | pull-down binding Z-score [2]: -1.61 | pull-down binding Z-score [3]: -1.14 | pull-down binding Z-score [4]: -1.44

UCCUAUUACGGA [SHAPE_invivo_SARS-CoV-2_Motif_121]
pull-down binding Z-score [1]: -0.643 | pull-down binding Z-score [2]: -1.27 | pull-down binding Z-score [3]: -0.479 | pull-down binding Z-score [4]: -0.905

UCCUAUUUCUGAACAUGACUACCAGAUUGGUGGUUAUACUGAAAAAUGGGA
pull-down binding Z-score [1]: -0.375 | pull-down binding Z-score [2]: -0.953 | pull-down binding Z-score [3]: 0.1 | pull-down binding Z-score [4]: 0.012

UCCUCAGUUUUACAUUCAACUCAGGA
pull-down binding Z-score [1]: -0.225 | pull-down binding Z-score [2]: -0.699 | pull-down binding Z-score [3]: -0.555 | pull-down binding Z-score [4]: -0.757

UCCUCCCAGUGGCUGGUGGA [IAV_invivo_PB2_1_Motif_9+IAV_invivo_PB2_1_Motif_9]
pull-down binding Z-score [1]: -0.322 | pull-down binding Z-score [2]: -0.225 | pull-down binding Z-score [3]: -0.0747 | pull-down binding Z-score [4]: -0.228

UCCUGUGGUAAUUUUAAAGUUACAAAAGGA
pull-down binding Z-score [1]: -0.424 | pull-down binding Z-score [2]: -0.669 | pull-down binding Z-score [3]: -0.823 | pull-down binding Z-score [4]: -0.795

UCCUGUUUACCUUUUACAAUUAAUUGCCAGGA [SHAPE_invivo_SARS-CoV-2_Motif_533]
pull-down binding Z-score [1]: -0.351 | pull-down binding Z-score [2]: 0.272 | pull-down binding Z-score [3]: -0.84 | pull-down binding Z-score [4]: -1.01

UCCUUACAUGGA
pull-down binding Z-score [1]: -0.672 | pull-down binding Z-score [2]: -1.16 | pull-down binding Z-score [3]: -0.557 | pull-down binding Z-score [4]: -0.321

UCCUUUGACAUGAGUAAUGAAGGAUCUUAUUUCUUCGGAGACAAUGCAGAGGA [IAV_invivo_NP_5_Motif_26+IAV_invivo_NP_5_Motif_26]
pull-down binding Z-score [1]: -0.286 | pull-down binding Z-score [2]: -0.0358 | pull-down binding Z-score [3]: -0.638 | pull-down binding Z-score [4]: -0.711
